PMC4077741, “Miz-1 Activates Gene Expression via a Novel Consensus DNA Binding Motif”

Experiments:
[1] = molecular target: T1, MBP-Miz-1-ZF (Homo sapiens) (UniProt Q13105); assay: competition; conditions: EMSA: ZBA (10 mM Tris pH 7.5, 90 mM KCl, 1 mM MgCl2, 90 uM ZnCl2, 5 mM DTT) with 100 ng/ul poly(dI-dC), 15 min, room temperature, 5% acrylamide gel in 0.5X …
T1 sequence (Q13105 269-793, looked up): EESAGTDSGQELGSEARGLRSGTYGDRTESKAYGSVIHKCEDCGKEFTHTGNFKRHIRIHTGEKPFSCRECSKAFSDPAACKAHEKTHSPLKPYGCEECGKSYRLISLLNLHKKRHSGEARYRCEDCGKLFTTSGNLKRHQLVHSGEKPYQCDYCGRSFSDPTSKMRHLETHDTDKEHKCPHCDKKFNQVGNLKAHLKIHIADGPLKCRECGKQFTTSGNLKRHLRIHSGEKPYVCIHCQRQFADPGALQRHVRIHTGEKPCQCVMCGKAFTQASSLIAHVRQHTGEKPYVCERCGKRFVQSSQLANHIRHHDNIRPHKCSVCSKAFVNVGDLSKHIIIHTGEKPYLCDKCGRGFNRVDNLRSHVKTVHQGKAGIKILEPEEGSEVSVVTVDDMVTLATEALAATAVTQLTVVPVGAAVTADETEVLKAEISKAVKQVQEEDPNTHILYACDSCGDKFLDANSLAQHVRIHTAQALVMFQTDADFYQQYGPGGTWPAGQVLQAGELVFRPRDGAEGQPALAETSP

Cux1 = Cux1 (UniProt P39880); assay: EMSA; conditions: EMSA: ZBA (10 mM Tris pH 7.5, 90 mM KCl, 1 mM MgCl2, 90 uM ZnCl2, 5 mM DTT) with 100 ng/ul poly(dI-dC), 15 min, room temperature, 5% acrylamide gel in 0.5X …
Chain of Cux1 (P39880 whole entry): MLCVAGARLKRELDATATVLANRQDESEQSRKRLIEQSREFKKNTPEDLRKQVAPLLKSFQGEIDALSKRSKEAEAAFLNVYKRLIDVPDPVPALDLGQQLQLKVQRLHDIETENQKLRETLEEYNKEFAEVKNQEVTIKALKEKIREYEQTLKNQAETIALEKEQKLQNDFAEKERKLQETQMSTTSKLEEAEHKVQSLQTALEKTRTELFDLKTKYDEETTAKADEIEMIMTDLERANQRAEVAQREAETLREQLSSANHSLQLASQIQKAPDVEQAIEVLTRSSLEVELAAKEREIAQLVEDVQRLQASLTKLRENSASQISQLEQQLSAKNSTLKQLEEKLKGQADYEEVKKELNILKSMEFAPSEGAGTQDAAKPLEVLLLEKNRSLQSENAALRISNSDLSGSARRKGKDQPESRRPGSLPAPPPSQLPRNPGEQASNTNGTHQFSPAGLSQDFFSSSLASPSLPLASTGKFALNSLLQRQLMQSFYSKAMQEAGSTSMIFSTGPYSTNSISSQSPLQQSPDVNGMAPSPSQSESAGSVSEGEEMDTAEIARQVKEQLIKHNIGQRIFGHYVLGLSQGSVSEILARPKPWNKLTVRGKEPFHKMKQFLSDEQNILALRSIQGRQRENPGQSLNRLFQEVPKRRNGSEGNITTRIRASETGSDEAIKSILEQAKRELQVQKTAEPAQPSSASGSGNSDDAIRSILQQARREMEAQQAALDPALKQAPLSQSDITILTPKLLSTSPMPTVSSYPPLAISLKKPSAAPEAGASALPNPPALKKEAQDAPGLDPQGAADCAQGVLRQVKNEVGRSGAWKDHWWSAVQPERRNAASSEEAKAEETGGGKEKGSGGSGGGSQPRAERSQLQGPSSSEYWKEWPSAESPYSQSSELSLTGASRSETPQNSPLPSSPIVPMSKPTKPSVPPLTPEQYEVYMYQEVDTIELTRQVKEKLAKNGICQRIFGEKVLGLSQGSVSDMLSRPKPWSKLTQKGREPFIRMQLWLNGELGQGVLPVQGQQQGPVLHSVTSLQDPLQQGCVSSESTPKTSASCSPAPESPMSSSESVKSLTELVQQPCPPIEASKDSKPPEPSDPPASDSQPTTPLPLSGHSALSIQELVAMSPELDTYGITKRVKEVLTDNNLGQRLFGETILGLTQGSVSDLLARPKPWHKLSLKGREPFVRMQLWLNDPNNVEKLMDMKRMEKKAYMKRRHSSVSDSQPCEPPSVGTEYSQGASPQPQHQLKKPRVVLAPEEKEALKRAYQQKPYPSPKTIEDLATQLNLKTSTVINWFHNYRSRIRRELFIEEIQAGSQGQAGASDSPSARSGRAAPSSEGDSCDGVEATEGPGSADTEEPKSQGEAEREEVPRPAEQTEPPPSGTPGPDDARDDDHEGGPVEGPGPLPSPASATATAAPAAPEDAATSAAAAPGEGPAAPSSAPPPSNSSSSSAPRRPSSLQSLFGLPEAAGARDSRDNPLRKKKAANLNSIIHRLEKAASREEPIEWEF

MBP-Miz-1-FL [2] = molecular target: T2, MBP-Miz-1-FL (Homo sapiens, UniProt Q13105 1-803); assay: competition; 200-fold unlabeled P1 vs labeled P2; EMSA: ZBA (10 mM Tris pH 7.5, 90 mM KCl, 1 mM MgCl2, 90 uM ZnCl2, 5 mM DTT) with 100 ng/ul poly(dI-dC), 15 min, room temperature; 5% acrylamide gel in 0.5X Tris-borate at 4 C; conditions: protein: recombinant; tags: N-terminal MBP; label: 5' IRDye 700 (labeled version); blunt
T2 sequence: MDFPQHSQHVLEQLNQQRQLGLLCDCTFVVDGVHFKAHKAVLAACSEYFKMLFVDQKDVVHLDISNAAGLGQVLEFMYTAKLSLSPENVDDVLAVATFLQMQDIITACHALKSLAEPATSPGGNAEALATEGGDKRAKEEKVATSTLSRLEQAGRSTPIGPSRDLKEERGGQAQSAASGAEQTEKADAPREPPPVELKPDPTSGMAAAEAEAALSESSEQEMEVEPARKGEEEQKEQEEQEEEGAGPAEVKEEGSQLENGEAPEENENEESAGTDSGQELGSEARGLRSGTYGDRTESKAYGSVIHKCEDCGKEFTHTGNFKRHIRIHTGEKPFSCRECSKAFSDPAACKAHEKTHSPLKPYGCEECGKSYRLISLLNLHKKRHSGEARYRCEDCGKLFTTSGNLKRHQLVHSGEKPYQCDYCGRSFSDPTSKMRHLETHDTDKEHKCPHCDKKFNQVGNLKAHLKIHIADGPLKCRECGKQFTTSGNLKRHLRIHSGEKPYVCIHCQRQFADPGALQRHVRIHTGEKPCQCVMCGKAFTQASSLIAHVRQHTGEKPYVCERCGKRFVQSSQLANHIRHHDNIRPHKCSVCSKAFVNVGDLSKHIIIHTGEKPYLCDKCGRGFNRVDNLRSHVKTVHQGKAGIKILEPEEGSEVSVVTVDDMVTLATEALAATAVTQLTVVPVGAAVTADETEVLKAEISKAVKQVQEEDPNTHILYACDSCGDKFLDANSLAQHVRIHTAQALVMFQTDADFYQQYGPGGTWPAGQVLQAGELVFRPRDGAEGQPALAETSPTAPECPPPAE

[3] = molecular target: T3, Miz-1 (Figure 7 preparation) (UniProt Q13105 1-803); assay: EMSA; EMSA: ZBA (10 mM Tris pH 7.5, 90 mM KCl, 1 mM MgCl2, 90 uM ZnCl2, 5 mM DTT) with 100 ng/ul poly(dI-dC), 15 min, room temperature; 5% acrylamide gel in 0.5X Tris-borate at 4 C; conditions: protein: ivt; label: 5' IRDye 700 (labeled version); blunt
T3 sequence: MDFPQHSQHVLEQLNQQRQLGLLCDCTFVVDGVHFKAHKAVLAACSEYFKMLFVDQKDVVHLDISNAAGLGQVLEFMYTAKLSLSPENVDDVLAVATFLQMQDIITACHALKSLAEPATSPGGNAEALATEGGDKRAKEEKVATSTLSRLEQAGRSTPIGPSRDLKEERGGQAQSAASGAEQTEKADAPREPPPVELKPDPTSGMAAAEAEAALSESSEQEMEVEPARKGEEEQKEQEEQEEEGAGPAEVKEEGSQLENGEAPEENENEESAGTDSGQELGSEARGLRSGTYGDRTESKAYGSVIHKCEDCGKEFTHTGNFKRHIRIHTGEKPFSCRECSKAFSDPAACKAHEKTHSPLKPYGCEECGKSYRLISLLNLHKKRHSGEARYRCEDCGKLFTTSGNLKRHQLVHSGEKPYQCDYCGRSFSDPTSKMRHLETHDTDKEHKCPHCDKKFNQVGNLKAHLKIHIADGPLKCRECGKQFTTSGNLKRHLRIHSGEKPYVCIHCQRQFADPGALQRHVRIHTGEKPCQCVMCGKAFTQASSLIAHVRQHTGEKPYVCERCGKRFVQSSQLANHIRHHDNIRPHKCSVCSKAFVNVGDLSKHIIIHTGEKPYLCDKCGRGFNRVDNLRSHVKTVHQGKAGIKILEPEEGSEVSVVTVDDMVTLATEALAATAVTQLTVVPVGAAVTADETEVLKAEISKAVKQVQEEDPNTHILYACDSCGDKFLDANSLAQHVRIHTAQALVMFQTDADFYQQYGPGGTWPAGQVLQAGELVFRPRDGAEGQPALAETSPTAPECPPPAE

MBP-Miz-1-FL [4] = molecular target: T2, MBP-Miz-1-FL; assay: competition; 200-fold unlabeled P1 vs labeled P1; EMSA: ZBA (10 mM Tris pH 7.5, 90 mM KCl, 1 mM MgCl2, 90 uM ZnCl2, 5 mM DTT) with 100 ng/ul poly(dI-dC), 15 min, room temperature; 5% acrylamide gel in 0.5X Tris-borate at 4 C; conditions: protein: recombinant; tags: N-terminal MBP; label: 5' IRDye 700 (labeled version); blunt
MBP-Miz-1-FL [5] = molecular target: T2, MBP-Miz-1-FL; assay: competition; 200-fold unlabeled P2 vs labeled P2; EMSA: ZBA (10 mM Tris pH 7.5, 90 mM KCl, 1 mM MgCl2, 90 uM ZnCl2, 5 mM DTT) with 100 ng/ul poly(dI-dC), 15 min, room temperature; 5% acrylamide gel in 0.5X Tris-borate at 4 C; conditions: protein: recombinant; tags: N-terminal MBP; label: 5' IRDye 700 (labeled version); blunt
MBP-Miz-1-FL [6] = molecular target: T2, MBP-Miz-1-FL; assay: competition; 200-fold unlabeled P2 vs labeled P1; EMSA: ZBA (10 mM Tris pH 7.5, 90 mM KCl, 1 mM MgCl2, 90 uM ZnCl2, 5 mM DTT) with 100 ng/ul poly(dI-dC), 15 min, room temperature; 5% acrylamide gel in 0.5X Tris-borate at 4 C; conditions: protein: recombinant; tags: N-terminal MBP; label: 5' IRDye 700 (labeled version); blunt
MBP-Miz-1-FL [7] = molecular target: T2, MBP-Miz-1-FL; assay: EMSA; EMSA: ZBA (10 mM Tris pH 7.5, 90 mM KCl, 1 mM MgCl2, 90 uM ZnCl2, 5 mM DTT) with 100 ng/ul poly(dI-dC), 15 min, room temperature; 5% acrylamide gel in 0.5X Tris-borate at 4 C; conditions: protein: recombinant; tags: N-terminal MBP; label: 5' IRDye 700; blunt
[8] = molecular target: T3, Miz-1 (Figure 7 preparation); assay: as above; conditions: protein: ivt; label: 5' IRDye 700; blunt
Miz-1 untagged = molecular target: T4, Miz-1 untagged (Homo sapiens, UniProt Q13105 1-803); assay: as above; conditions: protein: ivt; tags: none; label: 5' IRDye 700; blunt
T4 sequence: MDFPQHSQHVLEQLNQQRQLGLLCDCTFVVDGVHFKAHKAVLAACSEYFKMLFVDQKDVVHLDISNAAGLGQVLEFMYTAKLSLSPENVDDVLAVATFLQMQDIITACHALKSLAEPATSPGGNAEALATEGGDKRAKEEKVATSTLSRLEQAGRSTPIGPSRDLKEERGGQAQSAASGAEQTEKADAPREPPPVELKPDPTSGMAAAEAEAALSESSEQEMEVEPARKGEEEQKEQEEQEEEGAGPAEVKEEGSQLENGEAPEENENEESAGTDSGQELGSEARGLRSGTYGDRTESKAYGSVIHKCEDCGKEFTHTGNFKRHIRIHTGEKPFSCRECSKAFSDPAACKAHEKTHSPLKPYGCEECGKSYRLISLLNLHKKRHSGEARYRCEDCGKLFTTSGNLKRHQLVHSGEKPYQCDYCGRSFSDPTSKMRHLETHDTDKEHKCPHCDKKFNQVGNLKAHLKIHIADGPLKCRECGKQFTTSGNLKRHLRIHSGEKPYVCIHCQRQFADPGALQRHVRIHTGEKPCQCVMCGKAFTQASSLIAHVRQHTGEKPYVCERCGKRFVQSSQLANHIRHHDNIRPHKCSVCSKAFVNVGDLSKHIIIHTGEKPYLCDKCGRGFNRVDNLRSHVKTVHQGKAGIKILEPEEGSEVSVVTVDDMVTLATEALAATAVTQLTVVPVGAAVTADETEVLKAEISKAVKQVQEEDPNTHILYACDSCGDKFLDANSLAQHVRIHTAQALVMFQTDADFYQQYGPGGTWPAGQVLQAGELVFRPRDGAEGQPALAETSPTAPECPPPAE

MBP-Miz-1-FL [9] = molecular target: T2, MBP-Miz-1-FL; assay: competition; unlabeled P1m3 vs labeled P1 or P2; range over both proteins and probes; EMSA: ZBA (10 mM Tris pH 7.5, 90 mM KCl, 1 mM MgCl2, 90 uM ZnCl2, 5 mM DTT) with 100 ng/ul poly(dI-dC), 15 min, room temperature; 5% acrylamide gel in 0.5X Tris-borate at 4 C; conditions: protein: recombinant; tags: N-terminal MBP; blunt

For “GAATTATCCGTAATGCATCGAGGT (double strand) [P1m2]”, the binding signal (% reduction of bound labeled P1) ([1]; unlabeled P1m2 vs labeled P1, competition nearly eliminated) was 24.

With “GAATTAGGAGTAAACCATCGAGGT (double strand) [P1m1]” the binding signal (% reduction of bound labeled P1) ([1]; unlabeled P1m1 vs labeled P1, competition nearly eliminated) was 7.

Work on “GAATTATCGGTAATCCATCGAGGT (double strand) [P1]” yielded a binding signal (% reduction of bound labeled P1) ([1]; 200-fold unlabeled P1 vs labeled P1) of 87 and a binding signal (Cux1; scale: bound intensity relative to P2) of 0.5.

Work on “AGGGTTGGTATCGATTATCGAGTT (double strand) [P2]” yielded a binding signal (fold bound intensity P2 over P1) (Cux1) of 2.

B1: P1 (dsDNA)
DNA 1: GAATTATCGGTAATCCATCGAGGT
DNA 2: ACCTCGATGGATTACCGATAATTC
With B1 the binding signal (MBP-Miz-1-FL [2]) was 4.8 fold reduction of bound labeled P2, the binding signal [3] was ~2.5 fold bound intensity P1 over P2 and the binding signal (MBP-Miz-1-FL [4]) was 5.3 fold reduction of bound labeled P1.

B2: P2 (dsDNA)
DNA 1: AGGGTTGGTATCGATTATCGAGTT
DNA 2: AACTCGATAATCGATACCAACCCT
In the case of B2, the binding signal (MBP-Miz-1-FL [5]) is reported as 6.4 fold reduction of bound labeled P2 and the binding signal (MBP-Miz-1-FL [6]) is reported as 2 fold reduction of bound labeled P1.

B3: CP (dsDNA)
DNA 1: CAAAAGTGCGGCTGCGTGGTGCAC
DNA 2: GTGCACCACGCAGCCGCACTTTTG
B3: no binding (MBP-Miz-1-FL [7]); no binding [8]; no binding (Miz-1 untagged).

B4: P1m3 (dsDNA)
DNA 1: ACCCTTATATCGGTAATCGGTAAG
DNA 2: CTTACCGATTACCGATATAAGGGT
B4: binds (MBP-Miz-1-FL [9]).
